Test results published in the supplement of paper PMC10724198.
± gives the standard deviation of the averaged measurements.

system: Saccharomyces cerevisiae; experiment: protein stability index of tFT-peptide fusion (C-terminal peptide) (PSI (0-1 scale)); higher = more stable (slower turnover); conditions: genetic background: wild type; temperature: 30 C
Experimental: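 Multiplexed protein stability (MPS) profiling in S. cerevisiae. Random 12-aa peptides (tFT-X12 library) are fused to the C-terminus of a sfGFP-mCherry tandem fluorescent timer, after mCherry and a GGGS linker. Cells are FACS-sorted into 8 mCherry/sfGFP bins and deep-sequenced. The protein stability index (PSI) is the read-weighted bin average, scaled from 0 (unstable) to 1 (stable). Only peptides with >10 reads are reported; cells were grown at 30 °C in SC-His with glucose.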
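Also: PSI is a weighted mean of sequencing reads over stability bins, variants kept only with over 10 reads, mCherry proximal and sfGFP distal, peptide attached via GGGS linker.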

**Q.** For QTVKNYTSQSKR, which protein stability index is on record?
**A.** 0.666 ± 0.018

**Q.** Which protein stability index does the source give for VGLGEWMGALGV here?
**A.** 0.6634 ± 0.006

**Q.** For PPLPPPSVPPPC, which protein stability index is on record?
**A.** 0.716 ± 0.012

**Q.** For ALAQSGNVVLDR, which protein stability index is on record?
**A.** 0.751 ± 0.1

**Q.** How did the protein stability index turn out when RNTPFVCVRNGA was run?
**A.** 0.726 ± 0.16

**Q.** DAMSTRSRLLTR was tested. Which protein stability index did it give?
**A.** 0.7109 ± 0.0051

**Q.** VHPHPRSIKRER was tested. Which protein stability index did it give?
**A.** 0.6324 ± 0.0026

**Q.** Which protein stability index does the source give for PLPSPRLRFLVP here?
**A.** 0.653 ± 0.036

**Q.** Which protein stability index does the source give for SRKNGLQRKQKT here?
**A.** 0.7277 ± 0.0055

**Q.** For KSNTGGGERNKA, which protein stability index is on record?
**A.** 0.668 ± 0.018

**Q.** IWRLLLPLPNPF was tested. Which protein stability index did it give?
**A.** 0.688 ± 0.019

**Q.** SGSDGLLVGAPG was tested. Which protein stability index did it give?
**A.** 0.666 ± 0.047

**Q.** For PRRLCLLPLLSP, which protein stability index is on record?
**A.** 0.662 ± 0.022

**Q.** Which protein stability index does the source give for SLGFRSLGFDRV here?
**A.** 0.7195 ± 0.0024

**Q.** With GCRLFGLMFFDA as the sequence, how does the protein stability index read?
**A.** 0.682 ± 0.063

**Q.** PPVAPTPFPPPS was tested. Which protein stability index did it give?
**A.** 0.684 ± 0.018

**Q.** Which protein stability index does the source give for SGLRHACTPKSD here?
**A.** 0.671 ± 0.024

**Q.** For PPPLPPPPASPP, which protein stability index is on record?
**A.** 0.685 ± 0.01

**Q.** Which protein stability index does the source give for KRSIEIRTKIKL here?
**A.** 0.7 ± 0.022

**Q.** PLLPSGIPLFLS was tested. Which protein stability index did it give?
**A.** 0.574 ± 0.016

**Q.** SIVRKRPRTTAT was tested. Which protein stability index did it give?
**A.** 0.682 ± 0.031

**Q.** Which protein stability index does the source give for GCGGRTAAWGGG here?
**A.** 0.655 ± 0.024

**Q.** For KDEWVQSHTNQV, which protein stability index is on record?
**A.** 0.671 ± 0.0083

**Q.** For LRLCSLSLPSLP, which protein stability index is on record?
**A.** 0.704 ± 0.026

**Q.** How did the protein stability index turn out when LGRAGMWTRRGL was run?
**A.** 0.663 ± 0.034

**Q.** Which protein stability index does the source give for GWMTGMEERGGG here?
**A.** 0.674 ± 0.053

**Q.** How did the protein stability index turn out when VCFSVSWSGLSC was run?
**A.** 0.681 ± 0.009

**Q.** For ASPSYLFFLLPC, which protein stability index is on record?
**A.** 0.5788 ± 0.0018

**Q.** GAPAWMLLYSAS was tested. Which protein stability index did it give?
**A.** 0.723 ± 0.029

**Q.** Which protein stability index does the source give for NVIGGGRSAGLV here?
**A.** 0.609 ± 0.053

**Q.** Which protein stability index does the source give for RAVFNMSSPSHI here?
**A.** 0.711 ± 0.077

**Q.** Which protein stability index does the source give for RGRPEVRPPGHY here?
**A.** 0.707 ± 0.03

**Q.** For KKKKKNTKVYNE, which protein stability index is on record?
**A.** 0.703 ± 0.13

**Q.** With QKKNSPIPTNKN as the sequence, how does the protein stability index read?
**A.** 0.695 ± 0.04

**Q.** For GWLVVLGLVQDL, which protein stability index is on record?
**A.** 0.559 ± 0.039

**Q.** How did the protein stability index turn out when PLTPSPRPPPPS was run?
**A.** 0.615 ± 0.15

**Q.** How did the protein stability index turn out when RSLGFPLRNVTH was run?
**A.** 0.655 ± 0.015

**Q.** For WERREGTGMRAG, which protein stability index is on record?
**A.** 0.748 ± 0.051

**Q.** With GGGNRMRENGRE as the sequence, how does the protein stability index read?
**A.** 0.667 ± 0.026

**Q.** How did the protein stability index turn out when GPKSPLVCSPPP was run?
**A.** 0.657 ± 0.13

**Q.** For LSSLLPFPPLPC, which protein stability index is on record?
**A.** 0.685 ± 0.082

**Q.** For VSMPVGWRSWGG, which protein stability index is on record?
**A.** 0.694 ± 0.013

**Q.** For TLAPPSRATPPP, which protein stability index is on record?
**A.** 0.648 ± 0.041

**Q.** GCVVSIICGGRA was tested. Which protein stability index did it give?
**A.** 0.5639 ± 0.0013

**Q.** Which protein stability index does the source give for PPCLYPFPPPSR here?
**A.** 0.661 ± 0.017

**Q.** RKYKKKKGSKEE was tested. Which protein stability index did it give?
**A.** 0.708 ± 0.063

**Q.** How did the protein stability index turn out when YWGGWCGGWEIG was run?
**A.** 0.73 ± 0.034

**Q.** For VAESPGWAAGVD, which protein stability index is on record?
**A.** 0.689 ± 0.015

**Q.** For GSRRSWWVLCLG, which protein stability index is on record?
**A.** 0.485 ± 0.072

**Q.** For LSGNLLLSSLLQ, which protein stability index is on record?
**A.** 0.654 ± 0.049

**Q.** With HAPSRAPFPTAS as the sequence, how does the protein stability index read?
**A.** 0.71 ± 0.067

**Q.** Which protein stability index does the source give for PLGQVLRVSSDF here?
**A.** 0.75473 ± 0.00037

**Q.** FGGSGAYRRVGE was tested. Which protein stability index did it give?
**A.** 0.7 ± 0.072

**Q.** GAGGVGVTSGGK was tested. Which protein stability index did it give?
**A.** 0.668 ± 0.056

**Q.** For FRWGGPSGEVRE, which protein stability index is on record?
**A.** 0.643 ± 0.1

**Q.** APPPSPSPPPPL was tested. Which protein stability index did it give?
**A.** 0.712 ± 0.039

**Q.** For WRDGSLKIKCML, which protein stability index is on record?
**A.** 0.756 ± 0.21

**Q.** For STPVEATQDVAR, which protein stability index is on record?
**A.** 0.724 ± 0.0083

**Q.** How did the protein stability index turn out when GGRGGAVEERGG was run?
**A.** 0.67 ± 0.0078

**Q.** VFSTRLTSWYLT was tested. Which protein stability index did it give?
**A.** 0.555 ± 0.01

**Q.** With QCCPPEQLSNCS as the sequence, how does the protein stability index read?
**A.** 0.681 ± 0.011

**Q.** How did the protein stability index turn out when KVSATIISFENI was run?
**A.** 0.709 ± 0.1

**Q.** How did the protein stability index turn out when KDKNPDARDDGG was run?
**A.** 0.705 ± 0.04

**Q.** For VKGRKNEGPGKR, which protein stability index is on record?
**A.** 0.748 ± 0.065

**Q.** How did the protein stability index turn out when EKRAKKKVKIII was run?
**A.** 0.62 ± 0.035

**Q.** How did the protein stability index turn out when ELFGGQRLARNY was run?
**A.** 0.637 ± 0.057

**Q.** Which protein stability index does the source give for FLRCALRLRFGF here?
**A.** 0.671 ± 0.038

**Q.** LAVKGIVNDSTI was tested. Which protein stability index did it give?
**A.** 0.683 ± 0.0084

**Q.** Which protein stability index does the source give for GTTLGEVVCGVL here?
**A.** 0.683 ± 0.045

**Q.** How did the protein stability index turn out when KSEMAIIEKKEN was run?
**A.** 0.667 ± 0.055

**Q.** For CTGISVFYLFGD, which protein stability index is on record?
**A.** 0.66 ± 0.033

**Q.** LPSLSPPPSLPL was tested. Which protein stability index did it give?
**A.** 0.763 ± 0.042

**Q.** SGSVRSCSNTCL was tested. Which protein stability index did it give?
**A.** 0.6935 ± 0.0011

**Q.** SQGLWRGVALTG was tested. Which protein stability index did it give?
**A.** 0.7325 ± 0.0017

**Q.** SPPRSCLPRPPD was tested. Which protein stability index did it give?
**A.** 0.676 ± 0.05

**Q.** How did the protein stability index turn out when YLGRDYYVVLWG was run?
**A.** 0.7506 ± 0.0045

**Q.** For CSVGLPPLPPLH, which protein stability index is on record?
**A.** 0.704 ± 0.076

**Q.** GVGGRAGWGGLL was tested. Which protein stability index did it give?
**A.** 0.7167 ± 0.002

**Q.** HPPASPPHSPRS was tested. Which protein stability index did it give?
**A.** 0.63 ± 0.07

**Q.** With VCSLSCVGIWYW as the sequence, how does the protein stability index read?
**A.** 0.625 ± 0.0039

**Q.** WFQSSLVCDTWL was tested. Which protein stability index did it give?
**A.** 0.681 ± 0.015

**Q.** For GICLLRLDTFNI, which protein stability index is on record?
**A.** 0.667 ± 0.1

**Q.** For APPTSPLPIPSP, which protein stability index is on record?
**A.** 0.698 ± 0.017

**Q.** How did the protein stability index turn out when PVSSPPRPAPSP was run?
**A.** 0.677 ± 0.025

**Q.** For PATRIDAFPPVP, which protein stability index is on record?
**A.** 0.685 ± 0.022

**Q.** With KKGRTVEKKKGD as the sequence, how does the protein stability index read?
**A.** 0.694 ± 0.0039

**Q.** GLGMIIQNIIHS was tested. Which protein stability index did it give?
**A.** 0.642 ± 0.026

**Q.** Which protein stability index does the source give for EWALAESGYDEP here?
**A.** 0.746 ± 0.05

**Q.** With PPLPPPPPPFPP as the sequence, how does the protein stability index read?
**A.** 0.5534 ± 0.0012

**Q.** For DSIALNKDVFWW, which protein stability index is on record?
**A.** 0.773 ± 0.02

**Q.** How did the protein stability index turn out when WKCHRTDSRKRW was run?
**A.** 0.726 ± 0.044

**Q.** How did the protein stability index turn out when PLMKHSHSSLPF was run?
**A.** 0.7016 ± 0.0043

**Q.** With QDSTNTPHTCRS as the sequence, how does the protein stability index read?
**A.** 0.695 ± 0.06

**Q.** How did the protein stability index turn out when WGGTRCGGREVV was run?
**A.** 0.692 ± 0.054

**Q.** How did the protein stability index turn out when HIGSYTFILPSS was run?
**A.** 0.759 ± 0.064

**Q.** SFVLKAFLTRAV was tested. Which protein stability index did it give?
**A.** 0.765 ± 0.23

**Q.** With RIVVDIYANRRG as the sequence, how does the protein stability index read?
**A.** 0.689 ± 0.02

**Q.** How did the protein stability index turn out when GIGGSGLVSVVD was run?
**A.** 0.716 ± 0.039
